The record followed here is patent publication US20240059796A1 (SHENZHEN MAJORY BIOTECHNOLOGY, published 2024).

The target of assay [1] is TGF-β1 (inducer of the TGF-β/Smad reporter signal) (UniProt P01137 279-390, limits assumed). The assay can be described thus: cell-based or functional assay.
Assay [2] deals with T1, fusion protein TGF-β1-His (human, UniProt P01137 279-390).
T1 construct: 118 aa: a 112-residue TGF-β1 segment with a C-terminal His6 tag
The assay can be described thus: indirect ELISA, TGF-β1-His coated. The method, then:
(§1) The ELISA plate was coated with TGF-β1-His and incubated at 37° C. for 3 hours. After rinsing the plate, 1% BSA was used for blocking for one hour. After rinsing the plate, serially diluted antibody was added and incubated at 37° C. for 60 minutes. After rinsing the plate, enzyme-labeled donkey anti-human IgG secondary antibody working solution was added and incubated at 37° C. for 30 minutes. After rinsing the plate, TMB developing solution was added to develop for 5 minutes in a dark place, and termination solution was added to terminate the chromogenic reaction. The ELISA plate was immediately put into an ELISA reader, and the optical wavelength of 450 nm was selected to read the OD value of each well of the ELISA plate. The data was analyzed and processed with SoftMax Pro software.
(ELISA stands for enzyme-linked immunosorbent assay.)

Assay [3] deals with T2, human TGF-β1 (immobilised on the CM5 chip, Biacore) (human, UniProt P01137 279-390).
T2 construct: also called antigen TGF-β1
The assay can be described thus: SPR (Biacore), human TGF-β1 amine-coupled to CM5, 1:1 fit. The method, then:
The affinity constants of CT101 with human TGF-β1 were measured with a Biacore system for molecular interaction. HBS-EP served as buffer, human TGF-β1 was immobilized on the surface of CM5 chip by Bicaore standard amino coupling. Binding of antibody CT101 to human TGF-β1 was performed, where the concentration of antibody CT101 was 8-250 nM (2 fold dilution), the flow rate was 30 μl/min, the binding duration was 120 s, and the dissociation duration was 880 s. The chip was regenerated using 10 mM glycine, where PH was 2.7, the flow rate was 30 μl/min, and the duration was 120 s. The affinity constants were obtained by data fitting analysis with a 1:1 model. Data was collected with Biacore Control 2.0 software and analyzed using Biacore T200 Evaluation 2.0 software. The kinetics parameters of antibodies CT102 and CAT192 binding to human TGF-β1 are shown in Table 2, and the test results of specific kinetic parameters of antibody CT101 to human TGF-β1 are shown in FIG. 21.
(In general: SPR reads the build-up and loss of mass on a sensor chip optically.)

Assay [4] concerns the target T1, fusion protein TGF-β1-His. The assay can be described thus: competitive ELISA, TGF-β1-His coated; competitor human TGFβRII-ECD-Fc-biotin 0.1 µg/ml. The method, then:
(§2) The ELISA plate was coated with TGF-β1-His and incubated at 37° C. for 3 hours. After rinsing the plate, 1% BSA was used for blocking at 37° C. for one hour. After rinsing the plate, serially diluted antibody and human TGFβRII-ECD-Fc-biotin (final concentration 0.1 μg/ml) were added and incubated at room temperature for 2 hours. After rinsing the plate, HRP labeled streptavidin SA-HRP (1:2000) working solution was added and incubated at 37° C. for 30 minutes. After rinsing the plate, TMB developing solution was added to develop for 5 min in a dark place, and termination solution was added to terminate the chromogenic reaction. The ELISA plate was immediately put into an ELISA reader, and the optical wavelength of 450 nm was selected to read the OD value of each well of the ELISA plate. The data was analyzed and processed with SoftMax Pro software.

Assay [5] has as its target T1, fusion protein TGF-β1-His. The assay can be described thus: indirect ELISA, plate coated with TGF-β1-His, detection with enzyme-labeled anti-human IgG. The method, then:
as §1

Assay [6] has as its target T1, fusion protein TGF-β1-His. The assay can be described thus: competitive ELISA, plate coated with TGF-β1-His, antibody titrated against human TGFβRII-ECD-Fc-biotin (0.1 µg/ml), detection with SA-HRP. The method, then:
as §2

Assay [7] concerns the target T2, human TGF-β1 (immobilised on the CM5 …). The assay can be described thus: SPR (Biacore), human TGF-β1 amine-coupled to CM5, antibody 250 nM, 1:1 fit. The method, then: The affinity constants of CT101, CT102, CT111, and CT112 with human TGF-β1 were measured with a Biacore molecular interaction meter. HBS-EP served as buffer, human TGF-β1 was immobilized on the surface of CM5 chip by Bicaore standard amino coupling. Binding of antibodies CT101, CT102, CT111, and CT112 to human TGF-β1 was performed, where the concentration of antibodies CT101, CT102, CT111, and CT112 was 250 nM, the flow rate was 30 μl/min, the binding duration was 120 s, and the dissociation duration was 880 s. The chip was regenerated by using 10 mM glycine, where PH was 2.7, the flow rate was 30 μl/min, and the duration was 120 s. The affinity constants were obtained by data fitting analysis with a 1:1 model. Data was collected with Biacore Control 2.0 software and analyzed using Biacore T200 Evaluation 2.0 software. The kinetics parameters of antibodies CT101, CT102, CT111, and CT112 binding to human TGF-β1 are shown in Table 2, and the test results of specific kinetic parameters of antibodies CT101, CT102, CT111, and CT112 binding to human TGF-β1 are shown in FIG. 7.

T2 sequence (P01137 279-390 limits assumed): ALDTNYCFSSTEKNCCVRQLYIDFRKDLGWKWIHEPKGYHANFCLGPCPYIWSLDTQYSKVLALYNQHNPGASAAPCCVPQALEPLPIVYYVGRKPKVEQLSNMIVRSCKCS
Chain of TGF-β1 (inducer of the TGF-β/Smad reporter signal) (P01137 279-390 limits assumed): as above
T1 sequence (P01137 other isoform, or with tags, fused parts or gaps limits assumed): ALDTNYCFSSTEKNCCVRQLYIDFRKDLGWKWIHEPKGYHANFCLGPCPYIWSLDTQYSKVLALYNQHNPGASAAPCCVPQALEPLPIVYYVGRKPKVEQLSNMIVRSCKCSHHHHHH

B1: anti-TGF-β1 antibody CAT192 (antibody, human IgG4, V domains shown)
VH: EVQLVESGGGVVQPGRSLRLSCAASGFTFSSYGMHWVRQAPGKELEWVAVISYDGSIKYYADSVKGRFTISRDNSKNTLYLQMNSLRAEDTAVYYCARTGEYSGYDTDPQYSWGQGTTVTVSS
VL: EIVLTQSPSSLSASVGDRVTITCRSSQGIGDDLGWYQQKPGKAPILLIYGTSTLQSGVPSRFSGSGSGTDFTLTINSLQPEDFATYYCLQDSNYPLTFGGGTRLEIK
notes: The background section calls CAT192 a human IgG4 monoclonal antibody
By EC50 is commonly meant the concentration needed to bring the measured effect to its halfway point. A higher EC50 goes with a need for much substance. The term Kd denotes the free concentration of one partner at which half of the binding sites on the other are occupied at equilibrium, for simple one-to-one binding. What is called koff is the rate constant with which the complex falls apart. High values mean a short-lived complex, low ones a long-lived complex. In general, kon refers to a measure of how fast the partners come together. Broadly, the IC50 is the concentration at which inhibition is half-maximal. High values mean a need for much substance, low ones inhibition by little substance. A word on the EC50 (read off the curve): it is the concentration that produces a half-maximal response. A higher EC50 (read off the curve) goes with a less potent agent. As to B1, in assay [1], the “IC50, TGF-β/Smad luciferase reporter in HEK293-CD4 cells” value was 0.25 nM and the “IC50, TGF-β/Smad luciferase reporter in HEK293 cells” value (“IC50 … in HEK293 cells” below) was around 0.25 nM. In assay [2], this molecule displayed an EC50 of 0.0845 nM. In assay [3], this molecule registered a Kd of 0.8 nM, a koff of 2.4e-05 s⁻¹ and a kon of 30000 M⁻¹ s⁻¹. Further, in assay [4], the IC50 came to 0.105 nM. In assay [5], the “EC50 (read off the curve)” value was around 0.08 nM. The “IC50 (read off the curve)” value in assay [6] was around 0.09 nM.

B2: bifunctional antibody CT111 (bispecific antibody, human IgG4 S228P, kappa)
light: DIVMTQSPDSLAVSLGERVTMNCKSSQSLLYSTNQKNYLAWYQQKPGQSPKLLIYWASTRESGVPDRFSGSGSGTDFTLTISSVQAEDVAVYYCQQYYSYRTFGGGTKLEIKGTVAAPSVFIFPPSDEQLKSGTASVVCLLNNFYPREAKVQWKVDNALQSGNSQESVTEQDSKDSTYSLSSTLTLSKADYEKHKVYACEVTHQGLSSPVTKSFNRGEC
heavy: QVQLQQSGPEVVKPGASVKMSCKASGYTFTSYVIHWVRQKPGQGLDWIGYINPYNDGTDYDEKFKGKATLTSDTSTSTAYMELSSLRSEDTAVYYCAREKDNYATGAWFAYWGQGTLVTVSSASTKGPSVFPLAPCSRSTSESTAALGCLVKDYFPEPVTVSWNSGALTSGVHTFPAVLQSSGLYSLSSVVTVPSSSLGTKTYTCNVDHKPSNTKVDKRVESKYGPPCPPCPAPEFLGGPSVFLFPPKPKDTLMISRTPEVTCVVVDVSQEDPEVQFNWYVDGVEVHNAKTKPREEQFNSTYRVVSVLTVLHQDWLNGKEYKCKVSNKGLPSSIEKTISKAKGQPREPQVYTLPPCQEEMTKNQVSLWCLVKGFYPSDIAVEWESNGQPENNYKTTPPVLDSDGSFFLYSALTVDKSRWQEGNVFSCSVMHEALHNHYTQKSLSLSLGK
chain: EVQLVESGGGVVQPGRSLRLSCAASGFTFSSYGMHWVRQAPGKELEWVAVISYDGSIKYYADSVKGRFTISRDNSKNTLYLQMNSLRAEDTAVYYCARTGEYSGYDTDPQYSWGQGTTVTVSSGGGGSGGGGSGGGGSEIVLTQSPSSLSASVGDRVTITCRASQGIGDDLGWYQQKPGKAPILLIYGTSTLQSGVPSRFSGSGSGTDFTLTINSLQPEDFATYYCLQDSNYPLTFGGGTRLEIKYGPPCPPCPAPEFLGGPSVFLFPPKPKDTLMISRTPEVTCVVVDVSQEDPEVQFNWYVDGVEVHNAKTKPREEQFNSTYRVVSVLTVLHQDWLNGKEYKCKVSNKGLPSSIEKTISKAKGQPREPQVCTLPPSQEEMTKNQVSLSCAVKGFYPSDIAVEWESNGQPENNYKTTPPVLDSDGSFKLVSRLTVDKSRWQEGNVFSCSVMHEALHNHYTQKSLSLSLGK
Regarding B2, in assay [1], the “IC50 … in HEK293 cells” value was around 0.8 nM.

B3: bifunctional antibody CT112 (bispecific antibody, human IgG4 S228P, kappa)
light: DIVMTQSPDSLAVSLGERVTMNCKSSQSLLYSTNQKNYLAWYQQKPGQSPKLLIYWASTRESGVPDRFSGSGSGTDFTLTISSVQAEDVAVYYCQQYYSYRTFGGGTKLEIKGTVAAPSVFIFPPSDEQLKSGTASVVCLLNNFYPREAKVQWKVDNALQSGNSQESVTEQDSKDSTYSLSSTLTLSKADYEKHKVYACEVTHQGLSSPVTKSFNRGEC
heavy: B2 heavy
chain 1: EVQLVESGGGVVQPGRSLRLSCAASGFTFSSYGMHWVRQAPGKELEWVAVISYDGSIKYYADSVKGRFTISRDNSKNTLYLQMNSLRAEDTAVYYCARTGEYSGYDTDPQYSWGQGTTVTVSGGSGTVAAPSVFIFPPSDEQLKSGTASVVCLLNNFYPREAKVQWKVDNALQSGNSQESVTEQDSKDSTYSLSSTLTLSKADYEKHKVYACEVTHQGLSSPVTKSFNRGECSKYGPPCPPCPAPEFLGGPSVFLFPPKPKDTLMISRTPEVTCVVVDVSQEDPEVQFNWYVDGVEVHNAKTKPREEQFNSTYRVVSVLTVLHQDWLNGKEYKCKVSNKGLPSSIEKTISKAKGQPREPQVCTLPPSQEEMTKNQVSLSCAVKGFYPSDIAVEWESNGQPENNYKTTPPVLDSDGSFKLVSRLTVDKSRWQEGNVFSCSVMHEALHNHYTQKSLSLSLGK
chain 2: EIVLTQSPSSLSASVGDRVTITCRSSQGIGDDLGWYQQKPGKAPILLIYGTSTLQSGVPSRFSGSGSGTDFTLTINSLQPEDFATYYCLQDSNYPLTFGGGTRLEIKGSSASTKGPSVFPLAPCSRSTSESTAALGCLVKDYFPEPVTVSWNSGALTSGVHTFPAVLQSSGLYSLSSVVTVPSSSLGTKTYTCNVDHKPSNTKVDKRVES
notes: also called IgG CrossMab
Take B3: the “IC50 … in HEK293 cells” value in assay [1] was around 1 nM. Also, in assay [7], the Kd came out at 1.97 nM, the koff came to 5.9e-05 s⁻¹ and the kon worked out at 30000 M⁻¹ s⁻¹.
